These results are taken from PMC10693601.

Where “and” joins values, the source holds several entries; their conditions need not be identical. Equal entries are not always repeated. Some results are limits rather than exact numbers.

The test has as its target AIM2 (Absent In Melanoma 2), full length, without MBP tag, labeled with Alexa Fluor 488 (human) (UniProt O14862). As to the kind of experiment: single-molecule confocal fluorescence microscopy with optical tweezers; Alexa 488-labeled protein (~0.2-14 nM) in the protein channel, on a single biotinylated lambda-phage dsDNA (48.5 kbp) tethered between two optically trapped streptavidin beads; 2D scans, movies and kymographs; oligomer size from photon counts (11 per fluorophore); 20 mM HEPES pH 7.5, 160 mM KCl, 1 mM BME, 0.1% Triton X-100, 5% glycerol; room temperature.

As usually defined, the stoichiometry N is a count of units in the complex or per binding partner.

Turning to “AIM2 (Absent In Melanoma 2), full length, without MBP tag, labeled with Alexa Fluor 488 (from UniProt O14862 1-343) (natural protein)”, the oligomer growth rate (highest observed) was under 28 molecules/s; the oligomer growth rate (oligomers of 1-20 molecules, low nanomolar) lay in the range of 0.2 to 7 molecules/s; the oligomer growth rate at 0.5 nM AIM2 came out at 7.4 s⁻¹; the oligomer growth rate at 1 nM AIM2 (bottom kymograph, dimer to hexamer) is 94 s⁻¹. This substance registered an oligomer growth rate at 1 nM AIM2 (middle kymograph, starting from a monomer) of 5.8 s⁻¹; an oligomer growth rate at 2 nM AIM2 of 10.7 s⁻¹; an oligomer growth rate at 2 nM AIM2 (4 to 6 molecules) of 11.4 s⁻¹; an oligomer growth rate at 10 nM AIM2 (4 to 11 molecules) of 25.3 s⁻¹. In addition, the oligomer growth rate at 10 nM AIM2 (top kymograph) came to 302 s⁻¹; the oligomer growth rate at 13.5 nM AIM2 is 34 s⁻¹; the stoichiometry N is < 25 molecules and 13 molecules to 15 molecules (2×).
